# Measurements reported in patent US20230025280A1, “PH RESPONSIVE COMPOSITIONS, FORMULATIONS, AND METHODS OF IMAGING A TUMOR” (ONCONANO MEDICINE, INC, priority 2019, published 2023).
# Several values for one entry are separate records, joined by “and”; a condition that tells them apart may be missing. Identical values can stand only once. Marks after values point to notes of the source that are not given here.
# Test: Phase 1 (1a/1b) pharmacokinetics: plasma concentrations after single IV dose (validated direct fluorescence reader assay), noncompartmental analysis
# Assay type: in vivo, human
# Description: Phase 1 is a single-Principal Investigator, non-randomized, open-label, single-arm, cross-sectional study to evaluate the safety, PK profile, and imaging feasibility of Compound 1 in patients with solid cancers who require surgical excision. The main purpose of this study was to investigate the safety, PK, and feasibility of Compound 1 as an intra-operative optical imaging agent to detect tumors and metastatic lymph nodes in solid cancers. The study was intended to investigate the optimal dose range of Compound 1 for an adequate TBR and CNR of fluorescence obtained intraoperatively at 24 (±8) hours post dosing and with ex vivo specimens using ICG compatible cameras and imaging devices.
# Phase 1 enrolled 30 patients with solid cancers (HNSCC, breast cancer, esophageal cancer, or colorectal cancer) who have a biopsy-confirmed diagnosis of respective tumor types and are scheduled to undergo surgical resection of the tumor. The study design included a standard 3+3 design for the dose-escalation portion (Phase 1a; N=18 maximum) followed by a dose-expansion portion (Phase 1b; N=15). All patients received a single I.V. dose of Compound 1, followed by routine surgery approximately 24 hours after infusion of Compound 1.
# Phase 1a was a dose-finding study performed in 5 cohorts of 3 patients each. The dose levels evaluated were […], and 1.2 mg/kg, in this sequence. Inter-cohort dose escalation took place after the last patient in the previous cohort completed the Day 10 safety assessment. Safety, PK, and imaging feasibility were evaluated in both the Phase 1a and 1b portions of the study. Patient safety is assessed during the study and for up to 10 days post-dose.
# Study design: Single Compound 1 IV dose was administered as a 1-5 minute IV infusion to patients in five cohorts (0.1, 0.3, 0.5, 0.8, and 1.2 mg/kg) with three patients per cohort in Phase 1a and 15 patients at a dose of 1.2 mg/kg in Phase 1b. Patient demographic information including tumor types is presented in Table 4 and 5 for Phase 1a and Table 5 for Phase 1b. Intertek Pharmaceutical Services (San Diego, Calif.) determined Compound 1 plasma concentrations using a validated direct fluorescence reader assay. Pacific BioDevelopment (Davis, Calif.) performed the PK analysis.
# Sample collection: Blood samples were collected prior to infusion and at 10 minutes and 0.5, 1, 3, 8, 24, 48, 72, and 240 hours after infusion.
# Analysis: Plasma concentration versus time profiles were generated for each patient. Pharmacokinetic parameters were estimated using Phoenix WinNonlin (version 8.0). According to SOP, concentrations reported as BQL were set to 0 except for the 0.5 h sample for subject #ON1102, which was set to LLOQ/2 ([…] value used in parameter calculations) and the 24 and 48 h samples.
# If the coefficient of determination for the terminal slope estimation was less than 0.8, T1/2 was not reported (NR). AUC extrapolated to infinity is not reported for any data set because in all cases the % extrapolated AUC was greater than 20% and thus the AUCinf estimate would not be reliable. The concentration at 10 minutes, the first time point measured (C10m), was also reported for each patient.
# The area under the plasma concentration versus time curves from dosing to the last time point with a measurable concentration (AUClast) was estimated by the linear trapezoid method. The last three or more time points were used to estimate the elimination rate constant (λz) which was used to estimate the terminal-phase half-life (T1/2) and AUC from zero to infinity (AUCINF) from the following equations: […]
# [1] = 1.2 mg/kg, HNSCC, individual subjects
# [2] = Phase 1a, 0.3 mg/kg single IV, individual subject
# [3] = Phase 1a, 0.3 mg/kg single IV, mean
# [4] = Phase 1a, 0.3 mg/kg single IV, median
# [5] = Phase 1a, 0.5 mg/kg single IV, individual subject
substance,measurement,setting,value
PEO90-140-b-P(DBA60-150-r-ICG0-3-r-AMA0-3) [Compound 1],Cmax,"1.2 mg/kg, HNSCC, Mean, N 7",33600 ng/mL
same,Tmax,"1.2 mg/kg, HNSCC, Mean, N 7",1.14 h
same,T1/2,"1.2 mg/kg, HNSCC, Median, N 5",42.6 h
same,AUC0-24 hr,"1.2 mg/kg, HNSCC, Median, N 7",565 µg·h/mL
same,AUCall,"1.2 mg/kg, HNSCC, Median, N 7",1160 µg·h/mL
same,AUClast,"1.2 mg/kg, HNSCC, Median, N 7",970 µg·h/mL
same,C10 m,"1.2 mg/kg, HNSCC, Median, N 7",30.3 µg/mL
same,Cmax,"1.2 mg/kg, HNSCC, Median, N 7",32400 ng/mL
same,Tmax,"1.2 mg/kg, HNSCC, Median, N 7",0.500 h
same,AUC0-24 hr,[1],348 µg·h/mL and 563 µg·h/mL and 565 µg·h/mL and 520 µg·h/mL and 625 µg·h/mL and 730 µg·h/mL and 740 µg·h/mL
same,AUCall,[1],348 µg·h/mL and 1160 µg·h/mL and 1100 µg·h/mL and 747 µg·h/mL and 2690 µg·h/mL and 2550 µg·h/mL and 2740 µg·h/mL
same,AUClast,[1],184 µg·h/mL and 970 µg·h/mL and 957 µg·h/mL and 520 µg·h/mL and 1430 µg·h/mL and 1480 µg·h/mL and 1580 µg·h/mL
same,C10 m,[1],28.0 µg/mL and 34.1 µg/mL and 28.5 µg/mL and 27.5 µg/mL and 30.3 µg/mL and 47.6 µg/mL and 31.3 µg/mL
same,Cmax,[1],28000 ng/mL and 34100 ng/mL and 29900 ng/mL and 29200 ng/mL and 32400 ng/mL and 47600 ng/mL and 34300 ng/mL
same,T1/2,[1],32.5 h and 46.5 h and 42.6 h and 38.4 h and 46.8 h
same,Tmax,[1],0.170 h and 1.00 h and 0.500 h and 3.00 h
same,AUC0-24h in relation to dose,"Phase 1a and 1b, up to 1.2 mg/kg",appears to be dose proportional
same,Exposure in relation to dose,Phase 1a and Phase 1b combined,dose proportional
same,Measurability in subject plasma samples,"Phase 1a, 0.1 mg/kg",not measurable
same,C10 m,"Phase 1a, 0.1 mg/kg single IV, individual subject",0.00 µg/mL
same,C10 m,"Phase 1a, 0.1 mg/kg single IV, mean",0.00 µg/mL
same,C10 m,"Phase 1a, 0.1 mg/kg single IV, median",0.00 µg/mL
same,Plasma Conc,"Phase 1a, 0.100 mg/kg, 0.170 hr, individual subject","BQL (BQL (<10 μg/mL), set = 0 for PK analysis)"
same,Plasma Conc,"Phase 1a, 0.100 mg/kg, 0.170 hr, mean",0.00 µg/mL
same,Plasma Conc,"Phase 1a, 0.100 mg/kg, 0.500 hr, individual subject","BQL (BQL (<10 μg/mL), set = 0 for PK analysis)"
same,Plasma Conc,"Phase 1a, 0.100 mg/kg, 0.500 hr, mean",0.00 µg/mL
same,Plasma Conc,"Phase 1a, 0.100 mg/kg, 1.00 hr, individual subject","BQL (BQL (<10 μg/mL), set = 0 for PK analysis)"
same,Plasma Conc,"Phase 1a, 0.100 mg/kg, 1.00 hr, mean",0.00 µg/mL
same,Plasma Conc,"Phase 1a, 0.100 mg/kg, 3.00 hr, individual subject","BQL (BQL (<10 μg/mL), set = 0 for PK analysis)"
same,Plasma Conc,"Phase 1a, 0.100 mg/kg, 3.00 hr, mean",0.00 µg/mL
same,Plasma Conc,"Phase 1a, 0.100 mg/kg, 8.00 hr, individual subject","BQL (BQL (<10 μg/mL), set = 0 for PK analysis)"
same,Plasma Conc,"Phase 1a, 0.100 mg/kg, 8.00 hr, mean",0.00 µg/mL
same,Plasma Conc,"Phase 1a, 0.100 mg/kg, 24.0 hr, individual subject","BQL (BQL (<10 μg/mL), set = 0 for PK analysis)"
same,Plasma Conc,"Phase 1a, 0.100 mg/kg, 24.0 hr, mean",0.00 µg/mL
same,Plasma Conc,"Phase 1a, 0.100 mg/kg, 48.0 hr, individual subject","BQL (BQL (<10 μg/mL), set = 0 for PK analysis)"
same,Plasma Conc,"Phase 1a, 0.100 mg/kg, 48.0 hr, mean",0.00 µg/mL
same,Plasma Conc,"Phase 1a, 0.100 mg/kg, 72.0 hr, individual subject","BQL (BQL (<10 μg/mL), set = 0 for PK analysis)"
same,Plasma Conc,"Phase 1a, 0.100 mg/kg, 72.0 hr, mean",0.00 µg/mL
same,Plasma Conc,"Phase 1a, 0.100 mg/kg, 240 hr, individual subject","BQL (BQL (<10 μg/mL), set = 0 for PK analysis)"
same,Plasma Conc,"Phase 1a, 0.100 mg/kg, 240 hr, mean",0.00 µg/mL
same,Mean AUC0-24h,"Phase 1a, 0.3 mg/kg",197 µg·h/mL
same,Mean C10,"Phase 1a, 0.3 mg/kg",12 µg/mL
same,AUC0-24 hr,[2],292 µg·h/mL and 4.68 µg·h/mL and 296 µg·h/mL
same,AUCall,[2],437 hr*μg/mL and 4.68 hr*μg/mL and 2040^1 hr*μg/mL
same,AUClast,[2],292 µg·h/mL and 3.43 µg·h/mL and 902 µg·h/mL
same,C10 m,[2],10.7 µg/mL and 10.4 µg/mL and 14.8 µg/mL
same,Cmax,[2],12500 ng/mL and 10400 ng/mL and 16500 ng/mL
same,Tmax,[2],8.00 h and 0.170 h and 3.00 h
same,AUC0-24 hr,[3],197 µg·h/mL
same,AUCall,[3],826 µg·h/mL
same,AUClast,[3],399 µg·h/mL
same,C10 m,[3],12.0 µg/mL
same,Cmax,[3],13100 ng/mL
same,Tmax,[3],3.72 h
same,AUC0-24 hr,[4],292 µg·h/mL
same,AUCall,[4],437 µg·h/mL
same,AUClast,[4],292 µg·h/mL
same,C10 m,[4],10.7 µg/mL
same,Cmax,[4],12500 ng/mL
same,Tmax,[4],3.00 h
same,Plasma Conc,"Phase 1a, 0.300 mg/kg, 0.170 hr, individual subject",10.7 µg/mL and 10.4 µg/mL and 14.8 µg/mL
same,Plasma Conc,"Phase 1a, 0.300 mg/kg, 0.170 hr, mean",12.0 µg/mL
same,Plasma Conc,"Phase 1a, 0.300 mg/kg, 0.500 hr, individual subject",5.00^b μg/mL and 15.1 μg/mL
same,Plasma Conc,"Phase 1a, 0.300 mg/kg, 0.500 hr, mean",10.1 µg/mL
same,Plasma Conc,"Phase 1a, 0.300 mg/kg, 1.00 hr, individual subject","11.4 μg/mL and BQL (BQL (<10 μg/mL), set = 0 for PK analysis) and 12.9 μg/mL"
same,Plasma Conc,"Phase 1a, 0.300 mg/kg, 1.00 hr, mean",8.10 µg/mL
same,Plasma Conc,"Phase 1a, 0.300 mg/kg, 3.00 hr, individual subject","12.0 μg/mL and BQL (BQL (<10 μg/mL), set = 0 for PK analysis) and 16.5 μg/mL"
same,Plasma Conc,"Phase 1a, 0.300 mg/kg, 3.00 hr, mean",9.50 µg/mL
same,Plasma Conc,"Phase 1a, 0.300 mg/kg, 8.00 hr, individual subject","12.5 μg/mL and BQL (BQL (<10 μg/mL), set = 0 for PK analysis) and 11.2 μg/mL"
same,Plasma Conc,"Phase 1a, 0.300 mg/kg, 8.00 hr, mean",7.90 µg/mL
same,Plasma Conc,"Phase 1a, 0.300 mg/kg, 24.0 hr, individual subject","12.1 μg/mL and BQL (BQL (<10 μg/mL), set = 0 for PK analysis) (2×)"
same,Plasma Conc,"Phase 1a, 0.300 mg/kg, 24.0 hr, mean",6.05 µg/mL
same,Plasma Conc,"Phase 1a, 0.300 mg/kg, 48.0 hr, individual subject","BQL (BQL (<10 μg/mL), set = 0 for PK analysis)"
same,Plasma Conc,"Phase 1a, 0.300 mg/kg, 48.0 hr, mean",0.00 µg/mL
same,Plasma Conc,"Phase 1a, 0.300 mg/kg, 72.0 hr, individual subject","BQL (BQL (<10 μg/mL), set = 0 for PK analysis) (2×) and 13.5 μg/mL"
same,Plasma Conc,"Phase 1a, 0.300 mg/kg, 72.0 hr, mean",4.50 µg/mL
same,Plasma Conc,"Phase 1a, 0.300 mg/kg, 240 hr, individual subject","BQL (BQL (<10 μg/mL), set = 0 for PK analysis)"
same,Plasma Conc,"Phase 1a, 0.300 mg/kg, 240 hr, mean",0.00 µg/mL
same,Mean AUC0-24h,"Phase 1a, 0.5 mg/kg",289 µg·h/mL
same,Mean C10,"Phase 1a, 0.5 mg/kg",17.3 µg/mL
same,AUC0-24 hr,[5],314 µg·h/mL and 340 µg·h/mL and 213 µg·h/mL
same,AUCall,[5],314 µg·h/mL and 1980 µg·h/mL and 213 µg·h/mL
same,AUClast,[5],160 µg·h/mL and 969 µg·h/mL and 101 µg·h/mL
same,C10 m,[5],22.0 µg/mL and 16.2 µg/mL and 13.6 µg/mL
